Like-named read-outs stand apart in the source and are kept apart here. Marks after values point to notes of the source that are not given here. Values belong to the molecule of their own block, whether it stands above or below them.
Columns and labels:
[1] = in vivo, iv
[2] = tested on: white blood cells; conditions: taken orally; previously published animal experiments and clinical trials; cited from earlier work
[3] = tested on: BALB/c mice injected with 5-Fu; experiment: Blood cell counts in mice given 5-Fu (reduction of bone marrow suppression); type: in vivo
[4] = Body weight of mice given 5-Fu; type: in vivo
[5] = Pharmacokinetics study of intravenous injection of matrine or oxymatrine with addition of geranium oil (HPLC peak areas); conditions: with addition of geranium oil versus compound alone
[6] = Day 10, 5-Fu 135 mg/kg IP single dose only
[7] = Day 14, 5-Fu 135 mg/kg IP single dose only
[8] = Day 10, 135 μg/mouse G-CSF and 5-Fu
[9] = Day 14, 135 μg/mouse G-CSF and 5-Fu

absorption and metabolism of the compound (changes in HPLC peak areas over time) [1]: increase the absorption and metabolism
Molecule: O=C1CCC[C@@H]2[C@H]3CCC[N+]4([O-])CCC[C@@H](CN12)[C@@H]34 (stereo partly shown) [oxymatrine]
effect on increasing white blood cells [2]: does not show any effect on increasing white blood cells

GR (granulocytes) count [3, 6]: 0.25 ± 0.050 10^3/μl | LY (lymphocytes) count [3, 6]: 3.66 ± 0.648 10^3/μl | MO (monocytes) count [3, 6]: 0.25 ± 0.046 10^3/μl | PLT (platelets) count [3, 6]: 2828 ± 632.4 10^3/μl | RBC (erythrocytes) count [3, 6]: 7.86 ± 0.171 10^6/μl | WBC (total leukocytes) count [3, 6]: 4.17±0.677 10^3/μl | GR (granulocytes) count [3, 7]: 1.65 ± 0.756 10^3/μl | LY (lymphocytes) count [3, 7]: 5.75 ± 0.880 10^3/μl | MO (monocytes) count [3, 7]: 0.59 ± 0.316 10^3/μl | PLT (platelets) count [3, 7]: 2219 ± 750.2 10^3/μl | RBC (erythrocytes) count [3, 7]: 8.09 ± 0.331 10^6/μl | WBC (total leukocytes) count [3, 7]: 7.98 ± 1.575 10^3/μl
Molecule: O=c1[nH]cc(F)c(=O)[nH]1 [5-Fu, 5-Fluorouracil, reference compound]
weight of mice ([4]; Day 0, 5-Fu only group, in g): 22.0 ± 0.93 | weight of mice ([4]; Day 10, 5-Fu only group): 22.3 ± 1.53 g | weight of mice ([4]; Day 14, 5-Fu only group, in g): 23.5 ± 0.78 | weight of mice ([4]; Day -2, 5-Fu only group, in g): 20.7 ± 0.90

The next lines start with the molecule.

Molecule: O=C1CCC[C@@H]2[C@H]3CCCN4CCC[C@@H](CN12)[C@@H]34 [matrine]
absorption and metabolism of the compound (changes in HPLC peak areas over time) [5]: increase the absorption and metabolism

B1: G-CSF/5-Fu: granulocyte colony-stimulating factor, comparison treatment given with 5-Fu (protein, UniProt P09919 31-207, looked up)
Granulocyte …: TPLGPASSLPQSFLLKCLEQVRKIQGDGAALQEKLVSECATYKLCHPEELVLLGHSLGIPWAPLSSCPSQALQLAGCLSQLHSGLFLYQGLLQALEGISPELGPTLDTLQLDVADFATTIWQQMEELGMAPALQPTQGAMPAFASAFQRRAGGVLVASHLQSFLEVSYRVLRHLAQP
GR (granulocytes) count [3, 8]: 0.71 ± 0.268** 10^3/μl | LY (lymphocytes) count [3, 8]: 5.01 ± 1.372* 10^3/μl | MO (monocytes) count [3, 8]: 0.38 ± 0.141* 10^3/μl | PLT (platelets) count [3, 8]: 2303 ± 491.7 10^3/μl | RBC (erythrocytes) count [3, 8]: 7.82 ± 0.424 10^6/μl | WBC (total leukocytes) count [3, 8]: 5.46±2.338 10^3/μl | bone marrow suppression effect (WBC) relative to that of 5-Fu only [3, 8]: 51% | suppression effect with respect to granulocytes relative to 5-Fu only [3, 8]: 54% | suppression effect with respect to lymphocytes relative to 5-Fu only [3, 8]: 18% | suppression effect with respect to monocytes relative to 5-Fu only [3, 8]: 7% | WBC (total leukocytes) count ([3]; Day 10, 135 μg/mouse G-CSF and 5-Fu, listed as C-GSF/5-Fu): 5.46 ± 2.338 10^3/μl | GR (granulocytes) count [3, 9]: 1.64 ± 0.405 10^3/μl | LY (lymphocytes) count [3, 9]: 6.12 ± 1.164 10^3/μl | MO (monocytes) count [3, 9]: 0.58 ± 0.266 10^3/μl | PLT (platelets) count [3, 9]: 2105 ± 378.1 10^3/μl | RBC (erythrocytes) count [3, 9]: 8.02 ± 0.340 10^6/μl | WBC (total leukocytes) count [3, 9]: 8.34 ± 1.454 10^3/μl | total leukocyte count and lymphocyte count (only these) versus 5-Fu only [3, 9]: continued to increase to a higher level than that of mice treated with 5-Fu only | weight of mice ([4]; Day 0, G-CSF and 5-Fu, in g): 22.0 ± 1.84 | weight of mice ([4]; Day 14, G-CSF and 5-Fu, in g): 24.0 ± 1.64 | weight of mice ([4]; Day -2, G-CSF and 5-Fu, in g): 20.5 ± 1.76

Reference: patent US20080305188A9, “Composition and method for supporting cancer treatments” (priority 2003, published 2008)
